According to IntAct's records for PubMed 12925767:

B1: DASH complex subunit DAM1 (Saccharomyces cerevisiae), P53267 (parent)
chain: MSEDKAKLGTTRSATEYRLSIGSAPTSRRSSMGESSSLMKFADQEGLTSSVGEYNENTIQQLLLPKIRELSDSIITLDSNFTRLNFIHESLADLNESLGSLLYGIMSNSWCVEFSQAPHDIQDDLIAIKQLKSLEDEKNNLVMELSNMERGIKRKKDEQGENDLAKASQNKQFNQPLFPSSQVRKYRSYDNRDKRKPSKIGNNLQVENEEDYEDDTSSEASFVLNPTNIGMSKSSQGHVTKTTRLNNNTNSKLRRKSILHTIRNSIASGADLPIENDNVVNLGDLHPNNRISLGSGAARVVNGPVTKNRNSMFSGRAERKPTESRHSVAKKTEKKINTRPPFR

Variants of: B1
Conditions: with med21_yeast SRB7, P47822
Chain of med21_yeast SRB7, P47822 (P47822 whole entry): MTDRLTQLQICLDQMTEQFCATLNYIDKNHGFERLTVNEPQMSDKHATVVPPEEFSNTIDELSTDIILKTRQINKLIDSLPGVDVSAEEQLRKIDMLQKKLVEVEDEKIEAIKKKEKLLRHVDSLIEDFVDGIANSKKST

Variant	effect of a mutation on the interaction
MSEDKAKLGTTRSATEYRLDIGSAPTSRRSSMGESSSLMKFADQEGLTSSVGEYNENTIQQLLLPKIRELSDSIITLDSNFTRLNFIHESLADLNESLGSLLYGIMSNSWCVEFSQAPHDIQDDLIAIKQLKSLEDEKNNLVMELSNMERGIKRKKDEQGENDLAKASQNKQFNQPLFPSSQVRKYRSYDNRDKRKPSKIGNNLQVENEEDYEDDTSSEASFVLNPTNIGMSKSSQGHVTKTTRLNNNTNSKLRRKDILHTIRNDIASGADLPIENDNVVNLGDLHPNNRIDLGSGAARVVNGPVTKNRNSMFSGRAERKPTESRHSVAKKTEKKINTRPPFR [S20D;S257D;S265D;S292D]	causing an interaction

Variants of: B1
Conditions: with nup82_yeast NUP82, P40368
Chain of nup82_yeast NUP82, P40368 (P40368 whole entry): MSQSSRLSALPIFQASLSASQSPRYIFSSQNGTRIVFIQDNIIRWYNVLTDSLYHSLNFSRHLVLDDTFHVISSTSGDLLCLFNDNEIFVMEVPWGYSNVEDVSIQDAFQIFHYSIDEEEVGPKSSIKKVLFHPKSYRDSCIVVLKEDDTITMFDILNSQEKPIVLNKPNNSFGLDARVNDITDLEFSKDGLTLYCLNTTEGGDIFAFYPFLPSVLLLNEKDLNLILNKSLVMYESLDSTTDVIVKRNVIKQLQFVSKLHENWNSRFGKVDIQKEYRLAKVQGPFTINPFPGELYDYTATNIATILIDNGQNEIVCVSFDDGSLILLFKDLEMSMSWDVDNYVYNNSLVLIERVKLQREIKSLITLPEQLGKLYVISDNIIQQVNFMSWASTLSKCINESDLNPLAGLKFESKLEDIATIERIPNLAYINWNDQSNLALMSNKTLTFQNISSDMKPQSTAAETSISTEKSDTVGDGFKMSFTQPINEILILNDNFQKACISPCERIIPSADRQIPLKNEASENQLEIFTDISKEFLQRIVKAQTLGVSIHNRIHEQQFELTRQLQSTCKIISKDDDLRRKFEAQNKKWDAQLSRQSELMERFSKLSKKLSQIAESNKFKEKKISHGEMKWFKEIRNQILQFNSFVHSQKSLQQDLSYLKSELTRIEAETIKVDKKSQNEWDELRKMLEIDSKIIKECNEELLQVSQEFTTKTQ

Variant	effect of a mutation on the interaction
MSEDKAKLGTTRSATEYRLAIGSAPTSRRSSMGESSSLMKFADQEGLTSSVGEYNENTIQQLLLPKIRELSDSIITLDSNFTRLNFIHESLADLNESLGSLLYGIMSNSWCVEFSQAPHDIQDDLIAIKQLKSLEDEKNNLVMELSNMERGIKRKKDEQGENDLAKASQNKQFNQPLFPSSQVRKYRSYDNRDKRKPSKIGNNLQVENEEDYEDDTSSEASFVLNPTNIGMSKSSQGHVTKTTRLNNNTNSKLRRKAILHTIRNAIASGADLPIENDNVVNLGDLHPNNRIALGSGAARVVNGPVTKNRNSMFSGRAERKPTESRHSVAKKTEKKINTRPPFR [S20A;S257A;S265A;S292A]	causing an interaction

Variants of: B1
Conditions: with bmh1_yeast BMH1, P29311
Chain of bmh1_yeast BMH1, P29311 (P29311 whole entry): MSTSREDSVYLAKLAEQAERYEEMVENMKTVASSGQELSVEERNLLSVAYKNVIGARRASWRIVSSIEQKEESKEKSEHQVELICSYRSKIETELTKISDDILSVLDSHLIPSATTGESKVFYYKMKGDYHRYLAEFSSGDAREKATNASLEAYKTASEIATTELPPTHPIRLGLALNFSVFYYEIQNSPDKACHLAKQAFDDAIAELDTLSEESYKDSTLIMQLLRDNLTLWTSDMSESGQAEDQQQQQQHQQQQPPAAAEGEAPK

Variant	effect of a mutation on the interaction
MSEDKAKLGTTRSATEYRLAIGSAPTSRRSSMGESSSLMKFADQEGLTSSVGEYNENTIQQLLLPKIRELSDSIITLDSNFTRLNFIHESLADLNESLGSLLYGIMSNSWCVEFSQAPHDIQDDLIAIKQLKSLEDEKNNLVMELSNMERGIKRKKDEQGENDLAKASQNKQFNQPLFPSSQVRKYRSYDNRDKRKPSKIGNNLQVENEEDYEDDTSSEASFVLNPTNIGMSKSSQGHVTKTTRLNNNTNSKLRRKAILHTIRNAIASGADLPIENDNVVNLGDLHPNNRIALGSGAARVVNGPVTKNRNSMFSGRAERKPTESRHSVAKKTEKKINTRPPFR [S20A;S257A;S265A;S292A]	causing an interaction
